Molecular target: T1, VWF73-G6PDH conjugate (inhibited G6PDH-VWF reporter enzyme complex), P11411
T1 chain 1: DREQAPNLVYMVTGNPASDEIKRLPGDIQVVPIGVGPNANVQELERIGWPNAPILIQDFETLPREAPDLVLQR
T1 chain 2: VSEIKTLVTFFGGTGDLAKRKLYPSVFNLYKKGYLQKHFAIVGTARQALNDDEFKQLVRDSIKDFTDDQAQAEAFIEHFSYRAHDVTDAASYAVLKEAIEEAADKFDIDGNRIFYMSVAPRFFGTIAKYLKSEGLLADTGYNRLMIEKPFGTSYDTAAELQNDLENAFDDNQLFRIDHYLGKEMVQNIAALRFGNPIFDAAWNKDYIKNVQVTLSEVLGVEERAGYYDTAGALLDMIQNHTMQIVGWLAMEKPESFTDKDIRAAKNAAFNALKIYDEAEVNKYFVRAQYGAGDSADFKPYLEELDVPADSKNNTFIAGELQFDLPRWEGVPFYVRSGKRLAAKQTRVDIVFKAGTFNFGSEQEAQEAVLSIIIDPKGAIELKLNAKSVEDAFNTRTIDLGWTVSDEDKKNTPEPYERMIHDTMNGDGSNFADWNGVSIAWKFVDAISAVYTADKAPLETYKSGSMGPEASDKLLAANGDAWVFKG

B1: ADAMTS-13 (A Disintegrin And Metalloproteinase with a Thrombospondin type 1 motif, member 13) (protein)
chain: AAGGILHLELLVAVGPDVFQAHQEDTERYVLTNLNIGAELLRDPSLGAQFRVHLVKMVILTEPEGAPNITANLTSSLLSVCGWSQTINPEDDTDPGHADLVLYITRFDLELPDGNRQVRGVTQLGGACSPTWSCLITEDTGFDLGVTIAHEIGHSFGLEHDGAPGSGCGPSGHVMASDGAAPRAGLAWSPCSRRQLLSLLSAGRARCVWDPPRPQPGSAGHPPDAQPGLYYSANEQCRVAFGPKAVACTFAREHLDMCQALSCHTDPLDQSSCSRLLVPLLDGTECGVEKWCSKGRCRSLVELTPIAAVHGRWSSWGPRSPCSRSCGGGVVTRRRQCNNPRPAFGGRACVGADLQAEMCNTQACEKTQLEFMSQQCARTDGQPLRSSPGGASFYHWGAAVPHSQGDALCRHMCRAIGESFIMKRGDSFLDGTRCMPSGPREDGTLSLCVSGSCRTFGCDGRMDSQQVWDRCQVCGGDNSTCSPRKGSFTAGRAREYVTFLTVTPNLTSVYIANHRPLFTHLAVRIGGRYVVAGKMSISPNTTYPSLLEDGRVEYRVALTEDRLPRLEEIRIWGPLQEDADIQVYRRYGEEYGNLTRPDITFTYFQPKPRQAWVWAAVRGPCSVSCGAGLRWVNYSCLDQARKELVETVQCQGSQQPPAWPEACVLEPCPPYWAVGDFGPCSASCGGGLRERPVRCVEAQGSLLKTLPPARCRAGAQQPAVALETCNPQPCPARWEVSEPSSCTSAGGAGLALENETCVPGADGLEAPVTEGPGSVDEKLPAPEPCVGMSCPPGWGHLDATSAGEKAPSPWGSIRTGAQAAHVWTPAAGSCSVSCGRGLMELRFLCMDSALRVPVQEELCGLASKPGSRREVCQAVPCPARWQYKLAACSVSCGRGVVRRILYCARAHGEDDGEEILLDTQCQGLPRPEPQEACSLEPCPPRWKVMSLGPCSASCGLGTARRSVACVQLDQGQDVEVDEAACAALVRPEASVPCLIADCTYRWHVGTWMECSVSCGDGIQRRRDTCLGPQAQAPVPADFCQHLPKPVTVRGCWAGPCVGQGTPSLVPHEEAAAPGRTTATPAGASLEWSQARGLLFSPAPQPRRLLPGPQENSVQSSACGRQHLEPTGTIDMRGPGQADCAVAIGRPLGEVVTLRVLESSLNCSAGDMLLLWGRLTWRKMCRKLLDMTFSSKTNTLVVRQRCGRPGGGVLLRYGSQLAPETFYRECDMQLFGPWGEIVSPSLSPATSNAGGCRLFINVAPHARIAIHALATNMGAGTEGANASYILIRDTHSLRTTAFHGQQVLYWESESSQAEMEFSEGFLKAQASLRGQYWTLQSWVPEMQDPQSWKGKEGT
B1 was tested, and the “ADAMTS-13 activity (% of the norm); plasma of TTP patient 01” value was “TTP patient 01 with 9% of the norm”, the “ADAMTS-13 activity (% of the norm); plasma of TTP patient 02” value was “TTP patient 02 with 7% of the norm” and the “ADAMTS-13 activity (% of the norm); plasma of patient with ADAMTS-13 autoantibodies” value was “patient with 21% of the norm”. For the same protein, the “reactivation of G6PDH activity by cleavage of coupled VWF73 (absorption at 340 nm)” value was “occurs in a concentration-dependent manner with respect to ADAMTS-13 activity”, the Δ mOD/min Average; 0% normal plasma in ADAMTS-13-deficient plasma was 208 Δ mOD/min and the Δ mOD/min Average; 5% normal plasma in ADAMTS-13-deficient plasma was 215 Δ mOD/min. The Δ mOD/min Average; 10% normal plasma in ADAMTS-13-deficient plasma was 220 Δ mOD/min, the Δ mOD/min Average; 25% normal plasma in ADAMTS-13-deficient plasma was 232 Δ mOD/min and the Δ mOD/min Average; 50% normal plasma in ADAMTS-13-deficient plasma was 256 Δ mOD/min. The Δ mOD/min Average; 75% normal plasma in ADAMTS-13-deficient plasma was 286 Δ mOD/min, the Δ mOD/min Average; 100% normal plasma in ADAMTS-13-deficient plasma was 311 Δ mOD/min and the Δ mOD/min Average; plasma of Healthy donor 01 was 310 Δ mOD/min. For the same protein, the Δ mOD/min Average; plasma of Healthy donor 02 was 311 Δ mOD/min, the Δ mOD/min Average; plasma of Healthy donor 03 was 307 Δ mOD/min and the Δ mOD/min Average; plasma of Healthy donor 04 was 310 Δ mOD/min. For the same protein, the Δ mOD/min Average; plasma of Healthy donor 05 was 314 Δ mOD/min, the Δ mOD/min Average; plasma of Patient with ADAMTS-13 autoantibodies was 228 Δ mOD/min and the Δ mOD/min Average; plasma of TTP patient 01 was 218 Δ mOD/min. The Δ mOD/min Average; plasma of TTP patient 02 was 216 Δ mOD/min, the Δ mOD/min Measurement 1; 0% normal plasma in ADAMTS-13-deficient plasma was 208 Δ mOD/min and the Δ mOD/min Measurement 1; 5% normal plasma in ADAMTS-13-deficient plasma was 216 Δ mOD/min. The Δ mOD/min Measurement 1; 10% normal plasma in ADAMTS-13-deficient plasma was 221 Δ mOD/min, the Δ mOD/min Measurement 1; 25% normal plasma in ADAMTS-13-deficient plasma was 232 Δ mOD/min and the Δ mOD/min Measurement 1; 50% normal plasma in ADAMTS-13-deficient plasma was 255 Δ mOD/min. The Δ mOD/min Measurement 1; 75% normal plasma in ADAMTS-13-deficient plasma was 286 Δ mOD/min, the Δ mOD/min Measurement 1; 100% normal plasma in ADAMTS-13-deficient plasma was 310 Δ mOD/min and the Δ mOD/min Measurement 1; plasma of Healthy donor 01 was 309 Δ mOD/min. For the same protein, the Δ mOD/min Measurement 1; plasma of Healthy donor 02 was 310 Δ mOD/min, the Δ mOD/min Measurement 1; plasma of Healthy donor 03 was 305 Δ mOD/min and the Δ mOD/min Measurement 1; plasma of Healthy donor 04 was 312 Δ mOD/min. The Δ mOD/min Measurement 1; plasma of Healthy donor 05 was 315 Δ mOD/min, the Δ mOD/min Measurement 1; plasma of Patient with ADAMTS-13 autoantibodies was 227 Δ mOD/min and the Δ mOD/min Measurement 1; plasma of TTP patient 01 was 218 Δ mOD/min. For the same protein, the Δ mOD/min Measurement 1; plasma of TTP patient 02 was 220 Δ mOD/min, the Δ mOD/min Measurement 2; 0% normal plasma in ADAMTS-13-deficient plasma was 208 Δ mOD/min and the Δ mOD/min Measurement 2; 5% normal plasma in ADAMTS-13-deficient plasma was 216 Δ mOD/min. For the same protein, the Δ mOD/min Measurement 2; 10% normal plasma in ADAMTS-13-deficient plasma was 221 Δ mOD/min, the Δ mOD/min Measurement 2; 25% normal plasma in ADAMTS-13-deficient plasma was 233 Δ mOD/min and the Δ mOD/min Measurement 2; 50% normal plasma in ADAMTS-13-deficient plasma was 257 Δ mOD/min. The Δ mOD/min Measurement 2; 75% normal plasma in ADAMTS-13-deficient plasma was 288 Δ mOD/min, the Δ mOD/min Measurement 2; 100% normal plasma in ADAMTS-13-deficient plasma was 312 Δ mOD/min and the Δ mOD/min Measurement 2; plasma of Healthy donor 01 was 310 Δ mOD/min. The Δ mOD/min Measurement 2; plasma of Healthy donor 02 was 311 Δ mOD/min, the Δ mOD/min Measurement 2; plasma of Healthy donor 03 was 309 Δ mOD/min and the Δ mOD/min Measurement 2; plasma of Healthy donor 04 was 311 Δ mOD/min. For the same protein, the Δ mOD/min Measurement 2; plasma of Healthy donor 05 was 312 Δ mOD/min, the Δ mOD/min Measurement 2; plasma of Patient with ADAMTS-13 autoantibodies was 228 Δ mOD/min and the Δ mOD/min Measurement 2; plasma of TTP patient 01 was 219 Δ mOD/min. For the same protein, the Δ mOD/min Measurement 2; plasma of TTP patient 02 was 215 Δ mOD/min, the Δ mOD/min Measurement 3; 0% normal plasma in ADAMTS-13-deficient plasma was 207 Δ mOD/min and the Δ mOD/min Measurement 3; 5% normal plasma in ADAMTS-13-deficient plasma was 214 Δ mOD/min. For the same protein, the Δ mOD/min Measurement 3; 10% normal plasma in ADAMTS-13-deficient plasma was 219 Δ mOD/min, the Δ mOD/min Measurement 3; 25% normal plasma in ADAMTS-13-deficient plasma was 233 Δ mOD/min and the Δ mOD/min Measurement 3; 50% normal plasma in ADAMTS-13-deficient plasma was 254 Δ mOD/min. For the same protein, the Δ mOD/min Measurement 3; 75% normal plasma in ADAMTS-13-deficient plasma was 286 Δ mOD/min, the Δ mOD/min Measurement 3; 100% normal plasma in ADAMTS-13-deficient plasma was 311 Δ mOD/min and the Δ mOD/min Measurement 3; plasma of Healthy donor 01 was 311 Δ mOD/min. For the same protein, the Δ mOD/min Measurement 3; plasma of Healthy donor 02 was 312 Δ mOD/min, the Δ mOD/min Measurement 3; plasma of Healthy donor 03 was 306 Δ mOD/min and the Δ mOD/min Measurement 3; plasma of Healthy donor 04 was 309 Δ mOD/min. The Δ mOD/min Measurement 3; plasma of Healthy donor 05 was 314 Δ mOD/min, the Δ mOD/min Measurement 3; plasma of Patient with ADAMTS-13 autoantibodies was 229 Δ mOD/min and the Δ mOD/min Measurement 3; plasma of TTP patient 01 was 218 Δ mOD/min. For the same protein, the Δ mOD/min Measurement 3; plasma of TTP patient 02 was 214 Δ mOD/min.

Source: patent US20230374564
